T1: Sec61-CPLV (S. cerevisiae)
T1 sequence (P32915 whole entry, looked up): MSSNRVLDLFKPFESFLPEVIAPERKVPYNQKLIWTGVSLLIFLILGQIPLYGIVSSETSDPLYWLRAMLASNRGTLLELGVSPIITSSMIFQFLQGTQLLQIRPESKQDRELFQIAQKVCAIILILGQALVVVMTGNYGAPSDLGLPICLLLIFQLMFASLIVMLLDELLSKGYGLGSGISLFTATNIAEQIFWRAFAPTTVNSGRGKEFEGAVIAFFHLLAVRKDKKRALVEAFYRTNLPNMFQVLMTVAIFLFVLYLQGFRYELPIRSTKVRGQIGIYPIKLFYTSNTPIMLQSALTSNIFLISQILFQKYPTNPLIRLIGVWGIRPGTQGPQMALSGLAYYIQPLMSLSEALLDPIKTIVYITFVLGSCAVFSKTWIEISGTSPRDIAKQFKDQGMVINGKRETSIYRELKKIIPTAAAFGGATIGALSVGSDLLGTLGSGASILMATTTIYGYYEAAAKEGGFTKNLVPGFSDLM

T2: Ssh1-CPLV (S. cerevisiae)
T2 sequence (P38353 whole entry, looked up): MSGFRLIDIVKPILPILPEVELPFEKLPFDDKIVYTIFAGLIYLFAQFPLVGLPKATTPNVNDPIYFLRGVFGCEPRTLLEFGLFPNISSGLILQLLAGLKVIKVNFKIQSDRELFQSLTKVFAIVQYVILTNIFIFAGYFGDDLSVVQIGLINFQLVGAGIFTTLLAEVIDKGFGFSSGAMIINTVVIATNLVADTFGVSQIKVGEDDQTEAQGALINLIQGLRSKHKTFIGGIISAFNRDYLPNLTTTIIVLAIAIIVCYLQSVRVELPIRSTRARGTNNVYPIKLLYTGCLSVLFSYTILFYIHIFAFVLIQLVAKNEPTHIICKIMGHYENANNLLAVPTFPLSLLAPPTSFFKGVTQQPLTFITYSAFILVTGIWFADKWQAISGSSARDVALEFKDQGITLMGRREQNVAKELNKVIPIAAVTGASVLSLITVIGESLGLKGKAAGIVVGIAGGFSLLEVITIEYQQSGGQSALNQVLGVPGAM

B1: Nub-Sbh2p (natural protein)
chain: MAASVPPGGQRILQKRRQAQSIKEKQAKQTPTSTRQAGYGGSSSSILKLYTDEANGFRVDSLVVLFLSVGFIFSVIALHLLTKFTHII
B2: Nub-Sss1p (natural protein)
chain: MARASEKGEEKKQSNNQVEKLVEAPVEFVREGTQFLAKCKKPDLKEYTKIVKAVGIGFIAVGIIGYAIKLIHIPIRYVIV
B3: Nub-Sbh1p (natural protein)
chain: MSSPTPPGGQRTLQKRKQGSSQKVAASAPKKNTNSNNSILKIYSDEATGLRVDPLVVLFLAVGFIFSVVALHVISKVAGKLF
B4: Nub-Sec62p (natural protein)
chain: MSAVGPGSNAGASVNGGSATAIATLLRNHKELKQRQGLFQAKQTDFFRYKRFVRALHSEEYANKSARQPEIYPTIPSNKIEDQLKSREIFIQLIKAQMVIPVKKLHSQECKEHGLKPSKDFPHLIVSNKAQLEADEYFVWNYNPRTYMDYLIVIGVVSIILALVCYPLWPRSMRRGSYYVSLGAFGILAGFFAVAILRLILYVLSLIVYKDVGGFWIFPNLFEDCGVLESFKPLYGFGEKDTYSYKKKLKRMKKKQAKRESNKKKAINEKAEQN

These binders were tested against T1, Sec61-CPLV (S. cerevisiae) (assay: two-hybrid; split-ubiquitin, liquid beta-galactosidase assay (ONPG) on cell lysates, 30°C for 180 min, mean of 6 samples).

Row | Binder | beta-galactosidase units [U]
1 | B1 | 0.28
2 | B2 | 6
3 | B3 | 9.8

The binders below were run against T2, Ssh1-CPLV (S. cerevisiae) in the same assay as above.

Row | Binder | beta-galactosidase units [U]
4 | B1 | 0.45
5 | B2 | 0.55
6 | B3 | 0.43

What follows are binders tested against T1, Sec61-CPLV (S. cerevisiae) (assay: split reporter (BiFC, NanoBiT); split-ubiquitin, cleavage of PLV from the bait read by quantitative immunoblot of cell lysates with anti-PLV and 125I-Protein A; ratio of cleaved PLV to Arf1p).

Row | Binder | cleaved PLV relative to Arf1p (arbitrary units)
7 | B4 | 6.6
8 | B1 | 9.6
9 | B2 | 15
10 | B3 | 18

The binders below were run against T2, Ssh1-CPLV (S. cerevisiae) in the same assay as above.

Row | Binder | cleaved PLV relative to Arf1p (arbitrary units)
11 | B1 | 7.2
12 | B2 | 7.1
13 | B3 | 7.1
